{"source": "paper PMC10134273", "about": "(Cancer Medicine, 2023)", "description": "Secondary endpoints included PK parameters (e.g., maximum observed concentration [C max] and area under the concentration‐time curve [AUC]). Secondary endpoints included objective response rate (ORR), disease control rate (DCR), and duration of response (DOR) as assessed by investigator per RECIST v1.1. Tumor responses were assessed according to RECIST v1.1; computerized tomography scanning or magnetic resonance imaging was performed every 6 weeks in the first 48 weeks, and every 12 weeks thereafter. Secondary endpoints also included safety and tolerability (adverse events [AEs] as defined by the National Cancer Institute‐Common Terminology Criteria for Adverse Events CTCAE v5.0) and exploratory biomarkers (total bile acids, 7‐α‐hydroxy‐4‐cholesten‐3‐one [C4] and circulating FGF19). Safety follow‐up visit was performed within 30 days (±5 days) and 90 days (±7 days) after the last dose of the study treatment.\nAll patients who received at least one dose of the study treatment in the Phase 1 part of the study were included in the safety and efficacy analyses. Dose escalation and MTD assessment were primarily based on DLTs which occurred within the 28‐day observation period. Descriptive statistics were used for demographics, safety, and efficacy data. The number of patients who experienced DLTs (within and outside of the 28‐day DLT assessment period) was tabulated for each dose level. The sample size of patients required for dose escalation were determined based on the ‘3+3’ design and DLTs observed as the trial progressed.", "key": {"[1]": {"conditions": "EVER4010001 40 mg BID group (N=3)"}, "[2]": {"conditions": "EVER4010001 60 mg BID group (N=3)"}, "[3]": {"conditions": "EVER4010001 80 mg BID group (N=6)"}, "[4]": {"conditions": "EVER4010001 100 mg BID group (N=7)"}}, "note": "Where “and” joins values, the source holds several entries; their conditions need not be identical. Equal values may be shown once. Read-outs that look alike come from different tables or passages of the source."}
{"substance": "pembrolizumab: humanized monoclonal immunoglobulin G4 kappa anti-PD-1 antibody [reference compound]", "values": [{"measurement": "SAEs related to EVER4010001 or pembrolizumab", "setting": "2 patients with SAEs (40 and 60 mg)", "result": "none"}, {"measurement": "Any pembrolizumab related TEAEs", "setting": "Any Grade, N=19", "result": "18 (94.7%) n (%) and 18 (94.7) n (%)"}, {"measurement": "pembrolizumab related TEAEs: Abdominal pain", "setting": "Any Grade, N=19", "result": "2 (10.5) n (%)"}, {"measurement": "pembrolizumab related TEAEs: Anemia", "setting": "Any Grade, N=19", "result": "4 (21.1) n (%)"}, {"measurement": "pembrolizumab related TEAEs: Aspartate aminotransferase increase", "setting": "Any Grade, N=19", "result": "10 [52.6%] n (%) and 10 (52.6) n (%)"}, {"measurement": "pembrolizumab related TEAEs: Blood alkaline phosphatase increased", "setting": "Any Grade, N=19", "result": "4 (21.1) n (%)"}, {"measurement": "pembrolizumab related TEAEs: Blood and lymphatic system disorders", "setting": "Any Grade, N=19", "result": "4 (21.1) n (%)"}, {"measurement": "pembrolizumab related TEAEs: Blood bilirubin increased", "setting": "Any Grade, N=19", "result": "4 (21.1) n (%)"}, {"measurement": "pembrolizumab related TEAEs: Diarrhea", "setting": "Any Grade, N=19", "result": "11 [57.9%] n (%) and 11 (57.9) n (%)"}, {"measurement": "pembrolizumab related TEAEs: Endocrine disorders", "setting": "Any Grade, N=19", "result": "3 (15.8) n (%)"}, {"measurement": "pembrolizumab related TEAEs: Gamma-glutamyl transferase increased", "setting": "Any Grade, N=19", "result": "2 (10.5) n (%)"}, {"measurement": "pembrolizumab related TEAEs: Gastrointestinal disorders", "setting": "Any Grade, N=19", "result": "11 (57.9) n (%)"}, {"measurement": "pembrolizumab related TEAEs: Hyperphosphatemia", "setting": "Any Grade, N=19", "result": "3 (15.8) n (%)"}, {"measurement": "pembrolizumab related TEAEs: Hypoalbuminemia", "setting": "Any Grade, N=19", "result": "3 (15.8) n (%)"}, {"measurement": "pembrolizumab related TEAEs: Hypothyroidism", "setting": "Any Grade, N=19", "result": "3 (15.8) n (%)"}, {"measurement": "pembrolizumab related TEAEs: Investigations", "setting": "Any Grade, N=19", "result": "14 (73.7) n (%)"}, {"measurement": "pembrolizumab related TEAEs: Metabolism and nutrition disorders", "setting": "Any Grade, N=19", "result": "6 (31.6) n (%)"}, {"measurement": "pembrolizumab related TEAEs: Proteinuria", "setting": "Any Grade, N=19", "result": "4 (21.1) n (%)"}, {"measurement": "pembrolizumab related TEAEs: Renal and urinary disorder", "setting": "Any Grade, N=19", "result": "4 (21.1) n (%)"}, {"measurement": "pembrolizumab related TEAEs: Thyroiditis", "setting": "Any Grade, N=19", "result": "2 (10.5) n (%)"}, {"measurement": "TEAEs resulting in temporary interruption of pembrolizumab", "setting": "[1]", "result": "1 (33.3) n (%)"}, {"measurement": "Temporary interruption of pembrolizumab: Blood bilirubin increased", "setting": "[1]", "result": "0 n (%)"}, {"measurement": "Temporary interruption of pembrolizumab: Endocrine disorders", "setting": "[1]", "result": "1 (33.3) n (%)"}, {"measurement": "Temporary interruption of pembrolizumab: Investigations", "setting": "[1]", "result": "0 n (%)"}, {"measurement": "Temporary interruption of pembrolizumab: Thyroiditis", "setting": "[1]", "result": "1 (33.3) n (%)"}, {"measurement": "TEAEs resulting in temporary interruption of pembrolizumab", "setting": "[2]", "result": "0 n (%)"}, {"measurement": "Temporary interruption of pembrolizumab: Blood bilirubin increased", "setting": "[2]", "result": "0 n (%)"}, {"measurement": "Temporary interruption of pembrolizumab: Endocrine disorders", "setting": "[2]", "result": "0 n (%)"}, {"measurement": "Temporary interruption of pembrolizumab: Investigations", "setting": "[2]", "result": "0 n (%)"}, {"measurement": "Temporary interruption of pembrolizumab: Thyroiditis", "setting": "[2]", "result": "0 n (%)"}, {"measurement": "TEAEs resulting in temporary interruption of pembrolizumab", "setting": "[3]", "result": "1 (16.7) n (%)"}, {"measurement": "Temporary interruption of pembrolizumab: Blood bilirubin increased", "setting": "[3]", "result": "1 (16.7) n (%)"}, {"measurement": "Temporary interruption of pembrolizumab: Endocrine disorders", "setting": "[3]", "result": "0 n (%)"}, {"measurement": "Temporary interruption of pembrolizumab: Investigations", "setting": "[3]", "result": "1 (16.7) n (%)"}, {"measurement": "Temporary interruption of pembrolizumab: Thyroiditis", "setting": "[3]", "result": "0 n (%)"}, {"measurement": "TEAEs resulting in temporary interruption of pembrolizumab", "setting": "[4]", "result": "1 (14.3) n (%)"}, {"measurement": "Temporary interruption of pembrolizumab: Blood bilirubin increased", "setting": "[4]", "result": "0 n (%)"}, {"measurement": "Temporary interruption of pembrolizumab: Endocrine disorders", "setting": "[4]", "result": "0 n (%)"}, {"measurement": "Temporary interruption of pembrolizumab: Investigations", "setting": "[4]", "result": "1 (14.3) n (%)"}, {"measurement": "Temporary interruption of pembrolizumab: Thyroiditis", "setting": "[4]", "result": "0 n (%)"}, {"measurement": "pembrolizumab related TEAEs: Abdominal pain", "setting": "Grade ≥3, N=19", "result": "0 n (%)"}, {"measurement": "pembrolizumab related TEAEs: Anemia", "setting": "Grade ≥3, N=19", "result": "0 n (%)"}, {"measurement": "pembrolizumab related TEAEs: Aspartate aminotransferase increase", "setting": "Grade ≥3, N=19", "result": "2 (10.5) n (%)"}, {"measurement": "pembrolizumab related TEAEs: Blood alkaline phosphatase increased", "setting": "Grade ≥3, N=19", "result": "0 n (%)"}, {"measurement": "pembrolizumab related TEAEs: Blood and lymphatic system disorders", "setting": "Grade ≥3, N=19", "result": "0 n (%)"}, {"measurement": "pembrolizumab related TEAEs: Blood bilirubin increased", "setting": "Grade ≥3, N=19", "result": "0 n (%)"}, {"measurement": "pembrolizumab related TEAEs: Diarrhea", "setting": "Grade ≥3, N=19", "result": "1 (5.3) n (%)"}, {"measurement": "pembrolizumab related TEAEs: Endocrine disorders", "setting": "Grade ≥3, N=19", "result": "0 n (%)"}, {"measurement": "pembrolizumab related TEAEs: Gamma-glutamyl transferase increased", "setting": "Grade ≥3, N=19", "result": "0 n (%)"}, {"measurement": "pembrolizumab related TEAEs: Gastrointestinal disorders", "setting": "Grade ≥3, N=19", "result": "1 (5.3) n (%)"}, {"measurement": "pembrolizumab related TEAEs: Hyperphosphatemia", "setting": "Grade ≥3, N=19", "result": "0 n (%)"}, {"measurement": "pembrolizumab related TEAEs: Hypoalbuminemia", "setting": "Grade ≥3, N=19", "result": "0 n (%)"}, {"measurement": "pembrolizumab related TEAEs: Hypothyroidism", "setting": "Grade ≥3, N=19", "result": "0 n (%)"}, {"measurement": "pembrolizumab related TEAEs: Investigations", "setting": "Grade ≥3, N=19", "result": "2 (10.5) n (%)"}, {"measurement": "pembrolizumab related TEAEs: Metabolism and nutrition disorders", "setting": "Grade ≥3, N=19", "result": "0 n (%)"}, {"measurement": "pembrolizumab related TEAEs: Proteinuria", "setting": "Grade ≥3, N=19", "result": "0 n (%)"}, {"measurement": "pembrolizumab related TEAEs: Renal and urinary disorder", "setting": "Grade ≥3, N=19", "result": "0 n (%)"}, {"measurement": "pembrolizumab related TEAEs: Thyroiditis", "setting": "Grade ≥3, N=19", "result": "0 n (%)"}, {"measurement": "TEAEs resulting in temporary interruption of pembrolizumab", "setting": "Total (N=19)", "result": "3 [15.8%] n (%) and 3 (15.8) n (%)"}, {"measurement": "Temporary interruption of pembrolizumab: Blood bilirubin increased", "setting": "Total (N=19)", "result": "1 (5.3%) n (%) and 1 (5.3) n (%)"}, {"measurement": "Temporary interruption of pembrolizumab: Endocrine disorders", "setting": "Total (N=19)", "result": "1 (5.3) n (%)"}, {"measurement": "Temporary interruption of pembrolizumab: Investigations", "setting": "Total (N=19)", "result": "2 (10.5) n (%)"}, {"measurement": "Temporary interruption of pembrolizumab: Thyroiditis", "setting": "Total (N=19)", "result": "1 (5.3%) n (%) and 1 (5.3) n (%)"}]}
